According to the supplement of paper PMC10567573:

B1: KLHL13 (parent)
chain: GVSKVGLRKIIDFIYTAKLSLNMD
B2: KLHL12 (parent)
chain: LDYTADEDGVWYSVAPMNVRRGLA

Variants of: B1
Experiment: protein stability index of a GFP-peptide fusion (GPS, HEK-293T) (PSI 1-6); higher = more stable
Conditions: c terminus: a fixed tail appended
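Note: lentivirally expressed fusions sorted by FACS into six bins by GFP to DsRed ratio, PSI derived from sequencing read proportions per bin multiplied by bin number.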

Variant	protein stability index
GVSKVGLRKIIDFIYTAKLSLNTD [M23T]	2.19
GVSKVGLRKIIDFIYTAKLSLNYD [M23Y]	3.73
GVSKVGLRKIIDFIYTAKLSLNMV [D24V]	2.49
GVSKVGLRKIIDFIYTAKLSLNMR [D24R]	3.43
GVSKVGLRKIIDFIYTAKLSLNMK [D24K]	1.71
GVSKVGLRKIIDFIYTAKLSLNMG [D24G]	3.65
GVSKVGLRKIIDFIYTAKLSLNMY [D24Y]	2.2
GVSKVGLRKIIDFIYTAKLSLNMM [D24M]	2.28
GVSKVGLRKIIDFIYTAKLSLNMH [D24H]	3.01
GVSKVGLRKIIDFIYTAKLSLNMQ [D24Q]	2.15
GVSKVGLRKIIDFIYTAKLSLNMF [D24F]	2.82
GVSKVGLRKIIDFIYTAKLSLNMT [D24T]	3.01
GVSKVGLRKIIDFIYTAKLSLNMA [D24A]	3.2
GVSKVGLRKIIDFIYTAKLSLNMP [D24P]	2.88
GVSKVGLRKIIDFIYTAKLSLNMN [D24N]	2.74
GVSKVGLRKIIDFIYTAKLSLNML [D24L]	2.01

Variants of: B2
Experiment: as above
Conditions: c terminus: a fixed tail appended

Variant	protein stability index
LDYTCDEDGVWYSVAPMNVRRGLA [A5C]	1.68
LDYTDDEDGVWYSVAPMNVRRGLA [A5D]	2.76
LDYTEDEDGVWYSVAPMNVRRGLA [A5E]	2.14
VDYTADEDGVWYSVAPMNVRRGLA [L1V]	2.25
YDYTADEDGVWYSVAPMNVRRGLA [L1Y]	2.32
QDYTADEDGVWYSVAPMNVRRGLA [L1Q]	4
KDYTADEDGVWYSVAPMNVRRGLA [L1K]	2.75
GDYTADEDGVWYSVAPMNVRRGLA [L1G]	3.19
WDYTADEDGVWYSVAPMNVRRGLA [L1W]	2.53
NDYTADEDGVWYSVAPMNVRRGLA [L1N]	3.92
IDYTADEDGVWYSVAPMNVRRGLA [L1I]	1.89
ADYTADEDGVWYSVAPMNVRRGLA [L1A]	3.26
MDYTADEDGVWYSVAPMNVRRGLA [L1M]	2.2
HDYTADEDGVWYSVAPMNVRRGLA [L1H]	2.67
FDYTADEDGVWYSVAPMNVRRGLA [L1F]	2.16
CDYTADEDGVWYSVAPMNVRRGLA [L1C]	2.75
EDYTADEDGVWYSVAPMNVRRGLA [L1E]	3.53
TDYTADEDGVWYSVAPMNVRRGLA [L1T]	3.18
SDYTADEDGVWYSVAPMNVRRGLA [L1S]	3.24
RDYTADEDGVWYSVAPMNVRRGLA [L1R]	2.99
PDYTADEDGVWYSVAPMNVRRGLA [L1P]	3.41
DDYTADEDGVWYSVAPMNVRRGLA [L1D]	3.47
LDYDADEDGVWYSVAPMNVRRGLA [T4D]	2.41
LDYIADEDGVWYSVAPMNVRRGLA [T4I]	2.12
LDYPADEDGVWYSVAPMNVRRGLA [T4P]	3.09
LDYSADEDGVWYSVAPMNVRRGLA [T4S]	2.81

Variant	protein stability index
LDYCADEDGVWYSVAPMNVRRGLA [T4C]	1.98
LDYQADEDGVWYSVAPMNVRRGLA [T4Q]	2.45
LDYMADEDGVWYSVAPMNVRRGLA [T4M]	2.48
LDYEADEDGVWYSVAPMNVRRGLA [T4E]	2.69
LDYWADEDGVWYSVAPMNVRRGLA [T4W]	1.74
LDYRADEDGVWYSVAPMNVRRGLA [T4R]	1.51
LDYVADEDGVWYSVAPMNVRRGLA [T4V]	1.98
LDYYADEDGVWYSVAPMNVRRGLA [T4Y]	2.57
LDYHADEDGVWYSVAPMNVRRGLA [T4H]	1.77
LDYFADEDGVWYSVAPMNVRRGLA [T4F]	1.7
LDYGADEDGVWYSVAPMNVRRGLA [T4G]	2.1
LDYLADEDGVWYSVAPMNVRRGLA [T4L]	4.91
LDYNADEDGVWYSVAPMNVRRGLA [T4N]	2.24
LDYAADEDGVWYSVAPMNVRRGLA [T4A]	2.24
LDYKADEDGVWYSVAPMNVRRGLA [T4K]	2.57
LDHTADEDGVWYSVAPMNVRRGLA [Y3H]	3.43
LDTTADEDGVWYSVAPMNVRRGLA [Y3T]	3.01
LDATADEDGVWYSVAPMNVRRGLA [Y3A]	3.65
LDCTADEDGVWYSVAPMNVRRGLA [Y3C]	2.47
LDPTADEDGVWYSVAPMNVRRGLA [Y3P]	3.6
LDWTADEDGVWYSVAPMNVRRGLA [Y3W]	1.94
LDKTADEDGVWYSVAPMNVRRGLA [Y3K]	3.58
LDLTADEDGVWYSVAPMNVRRGLA [Y3L]	2.22
LDGTADEDGVWYSVAPMNVRRGLA [Y3G]	3.22
LDMTADEDGVWYSVAPMNVRRGLA [Y3M]	2.33
LDQTADEDGVWYSVAPMNVRRGLA [Y3Q]	3.69

Variant	protein stability index
LDFTADEDGVWYSVAPMNVRRGLA [Y3F]	2.29
LDETADEDGVWYSVAPMNVRRGLA [Y3E]	3.6
LDDTADEDGVWYSVAPMNVRRGLA [Y3D]	3.35
LDSTADEDGVWYSVAPMNVRRGLA [Y3S]	3.61
LDNTADEDGVWYSVAPMNVRRGLA [Y3N]	3.78
LDVTADEDGVWYSVAPMNVRRGLA [Y3V]	1.78
LDITADEDGVWYSVAPMNVRRGLA [Y3I]	1.85
LDRTADEDGVWYSVAPMNVRRGLA [Y3R]	2.99
LSYTADEDGVWYSVAPMNVRRGLA [D2S]	1.84
LQYTADEDGVWYSVAPMNVRRGLA [D2Q]	1.47
LPYTADEDGVWYSVAPMNVRRGLA [D2P]	2.48
LNYTADEDGVWYSVAPMNVRRGLA [D2N]	1.74
LCYTADEDGVWYSVAPMNVRRGLA [D2C]	2.46
LTYTADEDGVWYSVAPMNVRRGLA [D2T]	1.49
LAYTADEDGVWYSVAPMNVRRGLA [D2A]	2.3
LGYTADEDGVWYSVAPMNVRRGLA [D2G]	2.96
LKYTADEDGVWYSVAPMNVRRGLA [D2K]	1.68
LFYTADEDGVWYSVAPMNVRRGLA [D2F]	1.98
LLYTADEDGVWYSVAPMNVRRGLA [D2L]	1.55
LIYTADEDGVWYSVAPMNVRRGLA [D2I]	1.37
LYYTADEDGVWYSVAPMNVRRGLA [D2Y]	2.43
LMYTADEDGVWYSVAPMNVRRGLA [D2M]	2.4
LRYTADEDGVWYSVAPMNVRRGLA [D2R]	1.93
LEYTADEDGVWYSVAPMNVRRGLA [D2E]	1.76
LHYTADEDGVWYSVAPMNVRRGLA [D2H]	1.67
LWYTADEDGVWYSVAPMNVRRGLA [D2W]	2.19
